# T1: B7-H4 expressed on the human breast cancer cell line SkBr3 and on the B7-H4 expressing cell line MX-1 (human (SkBr3 is called a human breast …, UniProt Q7Z7D3 25-282))
# T1 construct: whole, on cells; also called VTCN1; B7x
# T1 sequence (looked up): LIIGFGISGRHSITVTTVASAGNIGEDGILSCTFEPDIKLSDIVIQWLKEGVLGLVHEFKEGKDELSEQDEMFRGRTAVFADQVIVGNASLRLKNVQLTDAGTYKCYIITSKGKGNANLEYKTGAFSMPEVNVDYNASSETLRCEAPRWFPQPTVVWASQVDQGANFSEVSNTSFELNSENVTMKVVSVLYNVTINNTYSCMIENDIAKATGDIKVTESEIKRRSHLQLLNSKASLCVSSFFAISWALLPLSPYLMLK
# Molecular target: T1, B7-H4 expressed on the human breast …
# Assay: staining of SkBr3 cells, antibody at 10 ug/ml (FIG. 1)
row,Binder,binding result
1,"anti-B7-H4 antibody 801 (antibody, V domains shown) VH: EVQLVESGGGLVQPGGSLRLSCAASGFTFNSYAMHWVRQAPGKGLEWVSAISGNGGSTRYADSVKGRFTISRDNSKNTLYLQMNSLRAEDTAVYYCARDRFRKVHGFDVWGQGTLVTVSS VL: DIQMTQSPSSLSASVGDRVTITCQASQDISNYLNWYQQKPGKAPKLLIYDASNLETGVPSRFSGSGSGTDFTFTISSLQPEDIATYYCQQDATFPLTFGQGTKVEIK",binds
2,"anti-B7-H4 antibody 817 (antibody, V domains shown) VH: EVQLVESGGGLVQPGGSLRLSCAASGFTFSSYAMHWVRQAPGKGLEWVSAISGSGGSTRYADSVKGRFTISRDNSKNTLYLQMNSLRAEDTAVYYCARGRWSKWGFDVWGQGTLVTVSS VL: not shown",binds
